Source: PMC5716730

Biological target: Cartilage oligomeric matrix protein (COMP), full-length, stably overexpressed in prostate cancer cells (human) (UniProt P49747)
Assay: non-reducing SDS-PAGE with western blot; concentrated conditioned medium (Opti-MEM, 2 days) of transfected cells on a 5% non-reducing SDS-PAGE gel, blotted with anti-human COMP; under reducing conditions (10% gel) a sharp band of 130 kDa

Cartilage oligomeric matrix protein (COMP), full-length, stably overexpressed in prostate cancer cells, P49747 21-757 (natural protein; other documents disagree on this pair), sequence (P49747 21-757): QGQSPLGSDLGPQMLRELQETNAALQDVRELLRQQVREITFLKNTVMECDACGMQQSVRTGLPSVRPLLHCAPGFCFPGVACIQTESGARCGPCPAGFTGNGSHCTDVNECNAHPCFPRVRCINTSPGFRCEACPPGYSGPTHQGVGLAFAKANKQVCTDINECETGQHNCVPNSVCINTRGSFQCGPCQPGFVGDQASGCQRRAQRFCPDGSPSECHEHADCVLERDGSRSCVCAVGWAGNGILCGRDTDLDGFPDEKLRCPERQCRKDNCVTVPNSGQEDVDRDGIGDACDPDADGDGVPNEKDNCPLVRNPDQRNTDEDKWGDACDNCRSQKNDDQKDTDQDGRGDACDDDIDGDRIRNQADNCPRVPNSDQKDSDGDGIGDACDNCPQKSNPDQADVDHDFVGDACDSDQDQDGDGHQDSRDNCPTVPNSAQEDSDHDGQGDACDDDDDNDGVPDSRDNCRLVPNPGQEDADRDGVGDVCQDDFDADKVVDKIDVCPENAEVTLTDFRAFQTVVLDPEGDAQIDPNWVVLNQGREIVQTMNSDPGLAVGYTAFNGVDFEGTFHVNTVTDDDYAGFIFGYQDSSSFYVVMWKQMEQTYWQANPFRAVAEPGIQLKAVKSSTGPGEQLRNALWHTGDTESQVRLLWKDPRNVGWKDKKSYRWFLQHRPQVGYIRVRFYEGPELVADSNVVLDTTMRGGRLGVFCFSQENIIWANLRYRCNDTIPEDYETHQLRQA

- stoichiometry N: 5
Substance: Cartilage oligomeric matrix protein (COMP), full-length, stably overexpressed in prostate cancer cells, P49747 21-757 (natural protein; other documents disagree on this pair)
